The series “cross-linking” deals with the molecule itself. As to the kind of experiment: cross-linking.
Substrate in the series “oxygen electrode”: OC(CS)C(O)CS
As to the kind of experiment: oxygen electrode. Type of series: biochemical, Saccharomyces cerevisiae. The following applies: O2 as co-substrate, 50 mM Tris/HCl, 0.3 mM EDTA, pH 7.5, 25 °C.

B1: Erv2p, wild type (enzyme, yeast, UniProt Q12284 1-196, looked up)
chain: PGLIKAKSGIDEVQGAAAEKNDARLKEIEKQTIMPLMGDDKVKKEVGRASWKYFHTLLARFPDEPTPEEREKLHTFIGLYAELYPCGECSYHFVKLIEKYPVQTSSRTAAAMWGCHIHNKVNEYLKKDIYDCATILEDYDCGCSDSDGKRVSLEKEAKQHG
Broadly, the stoichiometry N is the number of molecules, sites or subunits per partner or assembly. Turning to B1, in “cross-linking”, the “stoichiometry N” value worked out at 2.

B2: Erv2p (Saccharomyces cerevisiae S288C) (protein)
chain: MKQIVKRSHAIRIVAALGIIGLWMFFSSNELSIATPGLIKAKSGIDEVQGAAAEKNDARLKEIEKQTIMPLMGDDKVKKEVGRASWKYFHTLLARFPDEPTPEEREKLHTFIGLYAELYPCGECSYHFVKLIEKYPVQTSSRTAAAMWGCHIHNKVNEYLKKDIYDCATILEDYDCGCSDSDGKRVSLEKEAKQHG
What is called Km is the concentration of substrate that gives half-maximal velocity. The kcat is the number of substrate molecules converted per active site and unit of time at saturation. As for B2, in “oxygen electrode”, the Michaelis-Menten constant (Km) is recorded as 7 ± 1 mM and the kcat was 3.83 ± 0.13 s⁻¹.
